Laboratory results: the supplement of paper PMC10724198
± gives the standard deviation of the averaged measurements.

Key:
Saccharomyces cerevisiae [1] = test: protein stability index of tFT-peptide fusion in deletion strain of DAS1 (PSI (0-1 scale)); higher = more stable (slower turnover)
Experimental: (§1)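 MPS profiling in S. cerevisiae of two library types built from selected 12-aa C-degron peptides (IN1, IN2, LN1, LN3, VN2, R1-R5, W1-W3, Atg1 and Rpa12 C-termini): saturation mutagenesis libraries and C-terminal +1 capping libraries (13 aa). Each peptide is fused to the C-terminus of a sfGFP-mCherry timer, after a GGGS linker. Cells are FACS-sorted into 8 mCherry/sfGFP bins and sequenced. PSI runs from 0 (unstable) to 1 (stable), measured once in wild type and in the das1Δ or doa10Δ background.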

Saccharomyces cerevisiae [2] = test: protein stability index of tFT-peptide fusion in wild type (PSI (0-1 scale)); higher = more stable (slower turnover); conditions: genetic background: wild type
Experimental: as §1

Saccharomyces cerevisiae [3] = test: protein stability index of tFT-peptide fusion (C-terminal peptide) (PSI (0-1 scale)); higher = more stable (slower turnover); conditions: temperature: 30 C
Experimental: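 MPS profiling in S. cerevisiae of the yeast C-terminome library: the last 12 aa of each annotated ORF are fused to the C-terminus of a sfGFP-mCherry timer, after a GGGS linker. Cells are FACS-sorted into 8 mCherry/sfGFP bins and deep-sequenced. PSI runs from 0 (unstable) to 1 (stable); wild type and das1Δ backgrounds, two technical replicates each.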

[4] = genetic background: das1 deletion
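Wherever protein stability index of tFT-peptide fusion in deletion strain of DAS1 is given: PSI is a weighted mean of each variant's read distribution over the sorted stability bins, computed only for variants having over 10 reads in total.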
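Wherever protein stability index of tFT-peptide fusion in wild type is given: PSI derived as read-weighted mean over the 8 sorting bins, only variants exceeding 10 total reads kept, mCherry placed adjacent to the peptide and sfGFP distal.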

| Sequence | protein stability index (Saccharomyces cerevisiae [1]) | protein stability index (Saccharomyces cerevisiae [2]) | protein stability index (Saccharomyces cerevisiae [3]; [4]) | protein stability index (Saccharomyces cerevisiae [3]; genetic background: wild type) |
| --- | --- | --- | --- | --- |
| ADWRVGLWRGAS | 0.729 | 0.519 | – | – |
| APWRVGLWRGAS | 0.701 | 0.512 | – | – |
| ARERVGLWRGAS | 0.726 | 0.609 | – | – |
| ARLRVGLWRGAS | 0.69 | 0.581 | – | – |
| ARNRVGLWRGAS | 0.693 | 0.606 | – | – |
| ARWNVGLWRGAS | 0.662 | 0.322 | – | – |
| ARWRLGLWRGAS | 0.687 | 0.458 | – | – |
| ARWRMGLWRGAS | 0.689 | 0.605 | – | – |
| ARWRVGLTRGAS | 0.679 | 0.664 | – | – |
| ARWRVGLWAGAS | 0.627 | 0.599 | – | – |
| ARWRVGLWGGAS | 0.674 | 0.554 | – | – |
| ARWRVGLWIGAS | 0.572 | 0.367 | – | – |
| ARWRVGLWRGAD | 0.672 | 0.694 | – | – |
| ARWRVGLWRGAR | 0.666 | 0.663 | – | – |
| ARWRVGLWRGAY | 0.682 | 0.598 | – | – |
| ARWRVGLWRGHS | 0.691 | 0.602 | – | – |
| ARWRVGLWRTAS | 0.684 | 0.0835 | – | – |
| ARWRVGLWVGAS | 0.545 | 0.468 | – | – |
| ARWRVGLYRGAS | 0.641 | 0.683 | – | – |
| VILSETVVILYY [YKR032W C-terminal 12 aa] | – | – | 0.346 ± 0.014 | 0.345 ± 0.0067 |
| VKFGLQMAYLQS [YMR007W C-terminal 12 aa] | – | – | 0.7023 ± 0.005 | 0.6586 ± 0.0059 |

| Sequence | protein stability index (Saccharomyces cerevisiae [1]) | protein stability index (Saccharomyces cerevisiae [2]) | protein stability index (Saccharomyces cerevisiae [3]; [4]) | protein stability index (Saccharomyces cerevisiae [3]; genetic background: wild type) |
| --- | --- | --- | --- | --- |
| VLGDVIKIAQRL [HOM6 C-terminal 12 aa] | – | – | 0.728 ± 0.008 | 0.747 ± 0.031 |
| VLSNNVPYTQPR [RCH1 C-terminal 12 aa] | – | – | 0.703 ± 0.029 | 0.745 ± 0.054 |
| VLYIILYYIILY [YGL024W C-terminal 12 aa] | – | – | 0.282 ± 0.02 | 0.181 ± 0.035 |
| VMQELRKLKNAM [GLO4 C-terminal 12 aa] | – | – | 0.709 ± 0.018 | 0.64 ± 0.025 |
| VMSLYNLACKYI [SAM37 C-terminal 12 aa] | – | – | 0.797 ± 0.013 | 0.577 ± 0.056 |
| VNELVELMTQSA [SEC18 C-terminal 12 aa] | – | – | 0.675 ± 0.015 | 0.695 ± 0.014 |
| VNERSHDVKFTK [YIL165C C-terminal 12 aa] | – | – | 0.686 ± 0.006 | 0.689 ± 0.01 |
| VNHSFEFNDVLQ [IFH1 C-terminal 12 aa] | – | – | 0.686 ± 0.014 | 0.738 ± 0.025 |
| VPGGKKTPTEAL [LSM5 C-terminal 12 aa] | – | – | 0.6817 ± 0.0014 | 0.707 ± 0.026 |
| VPQLHSFIAKEQ [RMD9 C-terminal 12 aa] | – | – | 0.699 ± 0.017 | 0.3 ± 0.0037 |
| VPSLLILSVFFS [YPS3 C-terminal 12 aa] | – | – | 0.27 ± 0.03 | 0.273 ± 0.012 |
| VQEWEVLGRVDV [CPD1 C-terminal 12 aa] | – | – | 0.724 ± 0.014 | 0.692 ± 0.022 |
| VQQMVEMQGKMR [SGM1 C-terminal 12 aa] | – | – | 0.71134 ± 0.00034 | 0.68508 ± 0.00063 |
| VSDSSYDEYSNE [SYT1 C-terminal 12 aa] | – | – | 0.679 ± 0.021 | 0.672 ± 0.03 |
| VSKTYEEHIETV [JEN1 C-terminal 12 aa] | – | – | 0.688 ± 0.023 | 0.692 ± 0.013 |
| VSNASNGCVLDA [ILV3 C-terminal 12 aa] | – | – | 0.70459 ± 3.7e-05 | 0.707 ± 0.013 |
| VTSGKAHFVLYN [SIM1 C-terminal 12 aa] | – | – | 0.695 ± 0.017 | 0.655 ± 0.017 |
| VVERTRQAHFAI [YEF1 C-terminal 12 aa] | – | – | 0.676 ± 0.023 | 0.6752 ± 0.0036 |
| VVTYTLKVDLKV [YLR152C C-terminal 12 aa] | – | – | 0.469 ± 0.025 | 0.491 ± 0.012 |
| VVVVVPAVVKTR [SSO1 C-terminal 12 aa] | – | – | 0.503 ± 0.011 | 0.5221 ± 0.0046 |
| VVYYQMRCKKMT [BUD26 C-terminal 12 aa] | – | – | 0.678 ± 0.032 | 0.4177 ± 0.0039 |

| Sequence | protein stability index (Saccharomyces cerevisiae [1]) | protein stability index (Saccharomyces cerevisiae [2]) | protein stability index (Saccharomyces cerevisiae [3]; [4]) | protein stability index (Saccharomyces cerevisiae [3]; genetic background: wild type) |
| --- | --- | --- | --- | --- |
| VYVENPIRLFHH [ADE16 C-terminal 12 aa] | – | – | 0.712 ± 0.0083 | 0.7235 ± 0.0019 |
| WAVICFCSGIHK [YMR027W C-terminal 12 aa] | – | – | 0.5858 ± 0.0021 | 0.546 ± 0.013 |
| WDFKKQGFASRD [PDA1 C-terminal 12 aa] | – | – | 0.696 ± 0.01 | 0.6926 ± 0.003 |
| WERTMRDLKLIH [ALG1 C-terminal 12 aa] | – | – | 0.742 ± 0.027 | 0.64 ± 0.033 |
| WEVVTGIRKLLI [PEX12 C-terminal 12 aa] | – | – | 0.68 ± 0.008 | 0.401 ± 0.014 |
| WFSCSLIFRNSW [YJR140W-A C-terminal 12 aa] | – | – | 0.6314 ± 0.0035 | 0.618 ± 0.053 |
| WSNNDDMEQNPW [YPR089W C-terminal 12 aa] | – | – | 0.7236 ± 0.0055 | 0.713 ± 0.029 |
| WTTEPYLQRIIW [DIE2 C-terminal 12 aa] | – | – | 0.753 ± 0.0089 | 0.718 ± 0.016 |
| WYEDEDSGDDDM [DML1 C-terminal 12 aa] | – | – | 0.698 ± 0.012 | 0.674 ± 0.014 |
| YAPDVVRSLENL [RRP42 C-terminal 12 aa] | – | – | 0.7271 ± 0.0014 | 0.695 ± 0.043 |
| YAVKDKIETLLI [SNU13 C-terminal 12 aa] | – | – | 0.7019 ± 0.0055 | 0.725 ± 0.12 |
| YAYMLYYERVNK [UBP16 C-terminal 12 aa] | – | – | 0.675 ± 0.02 | 0.675 ± 0.041 |
| YDANSWKQIKSC [PCL5 C-terminal 12 aa] | – | – | 0.7002 ± 0.0065 | 0.203 ± 0.016 |
| YDRDAKNDRSTT [YHL017W C-terminal 12 aa] | – | – | 0.705 ± 0.023 | 0.665 ± 0.061 |
| YEEFALRSGSSS [AFG2 C-terminal 12 aa] | – | – | 0.715 ± 0.022 | 0.676 ± 0.014 |
| YEGPTLTEFEDA [CYB2 C-terminal 12 aa] | – | – | 0.6905 ± 0.0043 | 0.703 ± 0.015 |
| YFFSSDRAIFNA [YGL041C-B C-terminal 12 aa] | – | – | 0.731 ± 0.022 | 0.7029 ± 0.0011 |
| YFNKTEFLLADN [MRPL17 C-terminal 12 aa] | – | – | 0.713 ± 0.018 | 0.677 ± 0.025 |
| YIFQTYVSVDSK [YAR047C C-terminal 12 aa] | – | – | 0.62 ± 0.036 | 0.58 ± 0.015 |
| YILQKQIIEDVE [SFH5 C-terminal 12 aa] | – | – | 0.693 ± 0.0056 | 0.65 ± 0.043 |
| YINDISRTWNAN [MNT3 C-terminal 12 aa] | – | – | 0.68 ± 0.0086 | 0.679 ± 0.043 |

| Sequence | protein stability index (Saccharomyces cerevisiae [1]) | protein stability index (Saccharomyces cerevisiae [2]) | protein stability index (Saccharomyces cerevisiae [3]; [4]) | protein stability index (Saccharomyces cerevisiae [3]; genetic background: wild type) |
| --- | --- | --- | --- | --- |
| YIWKYYADSLFE [CSM2 C-terminal 12 aa] | – | – | 0.736 ± 0.013 | 0.685 ± 0.043 |
| YKDVQDAIRDSL [URA6 C-terminal 12 aa] | – | – | 0.708 ± 0.012 | 0.6855 ± 0.0037 |
| YKELVKNIESKL [CIT2 C-terminal 12 aa] | – | – | 0.752 ± 0.024 | 0.837 ± 0.015 |
| YKERDLIDRSAY [VTS1 C-terminal 12 aa] | – | – | 0.681 ± 0.014 | 0.706 ± 0.032 |
| YKKAATLISNIL [DNM1 C-terminal 12 aa] | – | – | 0.71 ± 0.017 | 0.72 ± 0.074 |
| YKQREYYTGVAW [ERG28 C-terminal 12 aa] | – | – | 0.70264 ± 0.0005 | 0.694 ± 0.02 |
| YLAFRLREFNKL [RSC1 C-terminal 12 aa] | – | – | 0.787 ± 0.05 | 0.726 ± 0.049 |
| YLKEYEFSQKDF [PFS1 C-terminal 12 aa] | – | – | 0.725 ± 0.01 | 0.734 ± 0.025 |
| YLRFKENPEEKW [AIM29 C-terminal 12 aa] | – | – | 0.711 ± 0.011 | 0.753 ± 0.086 |
| YNSGTEGTRFQI [TAR1 C-terminal 12 aa] | – | – | 0.707 ± 0.018 | 0.6849 ± 0.0015 |
| YQVSIAKVPRLT [BUD5 C-terminal 12 aa] | – | – | 0.711 ± 0.0095 | 0.4878 ± 0.0037 |
| YRCEKISQVLVI [CTF13 C-terminal 12 aa] | – | – | 0.461 ± 0.036 | 0.495 ± 0.047 |
| YRNIPESKPQGS [YIR021W-A C-terminal 12 aa] | – | – | 0.6812 ± 0.0038 | 0.6624 ± 0.0038 |
| YRVARKPSQPVM [MTO1 C-terminal 12 aa] | – | – | 0.685 ± 0.012 | 0.683 ± 0.027 |
| YVASHESQKADE [RRP5 C-terminal 12 aa] | – | – | 0.6883 ± 0.0054 | 0.741 ± 0.072 |
| YVKNLLTRFFTR [FRT1 C-terminal 12 aa] | – | – | 0.7184 ± 0.0033 | 0.732 ± 0.03 |
| YVVTSDEHPKTL [SIR2 C-terminal 12 aa] | – | – | 0.724 ± 0.0073 | 0.6955 ± 0.0043 |
| YWILKSNPTNES [YNL092W C-terminal 12 aa] | – | – | 0.742 ± 0.018 | 0.7246 ± 0.0071 |
| YWRKQYPEVDLP [UIP3 C-terminal 12 aa] | – | – | 0.728 ± 0.018 | 0.744 ± 0.017 |
| YYYYNKYKEFYP [TMH11 C-terminal 12 aa] | – | – | 0.736 ± 0.039 | 0.704 ± 0.029 |
